Reference: the supplement of paper PMC9112550, “Optimization of the antimicrobial peptide Bac7 by deep mutational scanning” (BMC Biology, 2022)

Test system: Escherichia coli TOP10
Assay: shrunken log2 fold change of peptide-encoding DNA abundance (4.5 h post-induction vs induction); higher = less antimicrobial activity (less host growth inhibition)
Settings: time post-induction: 4.5 h; library: site-saturation at positions 5, 18, 19, 20
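Also: peptides expressed intracellularly from a pBAD plasmid library in pooled LB shake-flask culture, induced with 0.3% L-arabinose, DNA abundance read by NGS, three biological replicates, DESeq2 with apeglm shrinkage.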

| Sequence | shrunken log2 fold change |
| --- | --- |
| RRIRDRPPRLPRPRPRPPRMPRP | 0.345 |
| RRIRVRPPRLPRPRPRPWDNPRP | 0.0145 |
| RRIRQRPPRLPRPRPRPSWVPRP | -0.0385 |
| RRIRRRPPRLPRPRPRPSVCPRP | 0.0243 |
| RRIRDRPPRLPRPRPRPGCIPRP | -0.158 |
| RRIRNRPPRLPRPRPRPDLSPRP | -0.0537 |
| RRIRIRPPRLPRPRPRPDENPRP | 0.108 |
| RRIRTRPPRLPRPRPRPQLGPRP | -0.0516 |
| RRIRFRPPRLPRPRPRPEHGPRP | 0.00151 |
| RRIRYRPPRLPRPRPRPTDFPRP | -0.325 |
| RRIRFRPPRLPRPRPRPTTSPRP | 0.0366 |
| RRIRIRPPRLPRPRPRPNEVPRP | -0.346 |
| RRIRRRPPRLPRPRPRPQEPPRP | 0.0839 |
| RRIRMRPPRLPRPRPRPAQYPRP | 0.377 |
| RRIRMRPPRLPRPRPRPTPWPRP | 0.844 |
| RRIRLRPPRLPRPRPRPDQFPRP | 0.0392 |
| RRIRGRPPRLPRPRPRPMMNPRP | 0.159 |
| RRIRRRPPRLPRPRPRPSIIPRP | -0.332 |
| RRIRLRPPRLPRPRPRPMINPRP | -0.224 |
| RRIRTRPPRLPRPRPRPDNRPRP | -0.0132 |
| RRIRKRPPRLPRPRPRPFFEPRP | 0.428 |
| RRIRNRPPRLPRPRPRPSHCPRP | -0.801 |
| RRIRWRPPRLPRPRPRPYCAPRP | -0.281 |
| RRIRQRPPRLPRPRPRPMQHPRP | -0.165 |
| RRIRFRPPRLPRPRPRPEPRPRP | 0.81 |

| Sequence | shrunken log2 fold change |
| --- | --- |
| RRIRCRPPRLPRPRPRPCYYPRP | -1.31 |
| RRIRLRPPRLPRPRPRPKYSPRP | -0.622 |
| RRIRGRPPRLPRPRPRPWTIPRP | 0.00608 |
| RRIRNRPPRLPRPRPRPLWDPRP | -0.00945 |
| RRIRYRPPRLPRPRPRPRTRPRP | -0.0272 |
| RRIRERPPRLPRPRPRPHDPPRP | -0.0577 |
| RRIRDRPPRLPRPRPRPHWGPRP | 0.00196 |
| RRIRLRPPRLPRPRPRPEAQPRP | 0.375 |
| RRIRHRPPRLPRPRPRPHPLPRP | -0.0572 |
| RRIRARPPRLPRPRPRPCQMPRP | -0.0341 |
| RRIRVRPPRLPRPRPRPANAPRP | -0.0677 |
| RRIRSRPPRLPRPRPRPACRPRP | 0.212 |
| RRIRWRPPRLPRPRPRPIYSPRP | -0.0292 |
| RRIRLRPPRLPRPRPRPKGWPRP | 0.342 |
| RRIRTRPPRLPRPRPRPMQNPRP | -0.0815 |
| RRIRARPPRLPRPRPRPANHPRP | -0.129 |
| RRIRIRPPRLPRPRPRPQWGPRP | -0.000367 |
| RRIRIRPPRLPRPRPRPSFHPRP | -1.13 |
| RRIRCRPPRLPRPRPRPLYTPRP | -0.765 |
| RRIRRRPPRLPRPRPRPCGEPRP | 0.0238 |
| RRIRCRPPRLPRPRPRPYNRPRP | -0.0425 |
| RRIRERPPRLPRPRPRPKKLPRP | -0.083 |
| RRIRWRPPRLPRPRPRPGNFPRP | -0.149 |
| RRIRHRPPRLPRPRPRPIRDPRP | 0.0386 |
| RRIRNRPPRLPRPRPRPYYKPRP | -1.46 |

| Sequence | shrunken log2 fold change |
| --- | --- |
| RRIRLRPPRLPRPRPRPDDSPRP | 0.0276 |
| RRIRPRPPRLPRPRPRPQIRPRP | -0.207 |
| RRIRPRPPRLPRPRPRPADWPRP | 0.434 |
| RRIRERPPRLPRPRPRPTDVPRP | -0.0755 |
| RRIRHRPPRLPRPRPRPLAYPRP | -0.351 |
| RRIRARPPRLPRPRPRPYYAPRP | -0.501 |
| RRIRFRPPRLPRPRPRPELSPRP | 0.0455 |
| RRIRKRPPRLPRPRPRPDKQPRP | 0.0638 |
| RRIRPRPPRLPRPRPRPICNPRP | -0.367 |
| RRIRIRPPRLPRPRPRPETRPRP | -0.0624 |
| RRIRYRPPRLPRPRPRPAVAPRP | 0.159 |
| RRIRCRPPRLPRPRPRPLKPPRP | -0.225 |
| RRIRKRPPRLPRPRPRPCHYPRP | -0.117 |
| RRIRVRPPRLPRPRPRPIEFPRP | 0.0379 |
| RRIRKRPPRLPRPRPRPCWFPRP | -0.0655 |
| RRIRYRPPRLPRPRPRPWGHPRP | -0.275 |
| RRIRERPPRLPRPRPRPKWKPRP | -0.0193 |
| RRIRVRPPRLPRPRPRPNVMPRP | -0.173 |
| RRIRLRPPRLPRPRPRPMPGPRP | 0.437 |
| RRIRPRPPRLPRPRPRPDKPPRP | -0.233 |
| RRIRVRPPRLPRPRPRPPPCPRP | 0.358 |
| RRIRHRPPRLPRPRPRPMLFPRP | -0.0839 |
| RRIRHRPPRLPRPRPRPQKKPRP | -0.421 |
| RRIRCRPPRLPRPRPRPGQMPRP | -0.147 |
| RRIRCRPPRLPRPRPRPAFTPRP | 0.0636 |

| Sequence | shrunken log2 fold change |
| --- | --- |
| RRIRTRPPRLPRPRPRPWNSPRP | -0.0351 |
| RRIRDRPPRLPRPRPRPCIHPRP | -0.233 |
| RRIRPRPPRLPRPRPRPPAFPRP | 0.166 |
| RRIRWRPPRLPRPRPRPLWYPRP | -0.225 |
| RRIRHRPPRLPRPRPRPLIMPRP | -0.561 |
| RRIRFRPPRLPRPRPRPDKDPRP | -0.393 |
| RRIRHRPPRLPRPRPRPWLKPRP | -0.185 |
| RRIRTRPPRLPRPRPRPTERPRP | 0.36 |
| RRIRKRPPRLPRPRPRPRIIPRP | 0.081 |
| RRIRARPPRLPRPRPRPFDEPRP | 0.194 |
| RRIRLRPPRLPRPRPRPEYPPRP | -0.336 |
| RRIRARPPRLPRPRPRPKGAPRP | 0.514 |
| RRIRRRPPRLPRPRPRPMMGPRP | 0.235 |
| RRIRCRPPRLPRPRPRPIMNPRP | -0.911 |
| RRIRHRPPRLPRPRPRPGNKPRP | -0.089 |
| RRIRKRPPRLPRPRPRPWPKPRP | 0.274 |
| RRIRRRPPRLPRPRPRPQKWPRP | 0.136 |
| RRIRSRPPRLPRPRPRPTYWPRP | -0.123 |
| RRIRGRPPRLPRPRPRPGWQPRP | 0.0826 |
| RRIRFRPPRLPRPRPRPIVHPRP | -0.581 |
| RRIRQRPPRLPRPRPRPVLIPRP | 0.0422 |
| RRIRHRPPRLPRPRPRPISQPRP | -0.0145 |
| RRIRMRPPRLPRPRPRPIMAPRP | -0.0196 |
| RRIRNRPPRLPRPRPRPHMLPRP | -0.954 |
| RRIRWRPPRLPRPRPRPLLWPRP | 0.571 |

| Sequence | shrunken log2 fold change |
| --- | --- |
| RRIRRRPPRLPRPRPRPFNDPRP | 0.0417 |
| RRIRARPPRLPRPRPRPRGLPRP | 0.628 |
| RRIRHRPPRLPRPRPRPRSVPRP | 0.0714 |
| RRIRPRPPRLPRPRPRPNCLPRP | -0.0395 |
| RRIRFRPPRLPRPRPRPPEGPRP | 0.996 |
| RRIRSRPPRLPRPRPRPGRTPRP | 0.0636 |
| RRIRMRPPRLPRPRPRPVRYPRP | 0.64 |
| RRIRWRPPRLPRPRPRPYAWPRP | 0.122 |
| RRIRRRPPRLPRPRPRPGCNPRP | 0.327 |
| RRIRIRPPRLPRPRPRPGCPPRP | -0.304 |
| RRIRIRPPRLPRPRPRPNKYPRP | -0.932 |
| RRIRVRPPRLPRPRPRPRGCPRP | 0.374 |
| RRIRLRPPRLPRPRPRPVGWPRP | 0.671 |
| RRIRWRPPRLPRPRPRPAFMPRP | 0.0849 |
| RRIRDRPPRLPRPRPRPLPCPRP | 0.0544 |
| RRIRKRPPRLPRPRPRPGQTPRP | 0.611 |
| RRIRMRPPRLPRPRPRPLEMPRP | 1.4 |
| RRIRCRPPRLPRPRPRPACIPRP | -0.186 |
| RRIRLRPPRLPRPRPRPSTHPRP | -0.59 |
| RRIRFRPPRLPRPRPRPGFRPRP | 0.0855 |
| RRIRCRPPRLPRPRPRPHNIPRP | -0.898 |
| RRIRTRPPRLPRPRPRPPLWPRP | 0.689 |
| RRIRRRPPRLPRPRPRPQEYPRP | -0.0725 |
| RRIRYRPPRLPRPRPRPMPEPRP | 0.0501 |
| RRIRERPPRLPRPRPRPTVAPRP | 0.075 |

| Sequence | shrunken log2 fold change |
| --- | --- |
| RRIRLRPPRLPRPRPRPWPQPRP | 0.244 |
| RRIRVRPPRLPRPRPRPVMVPRP | -0.166 |
| RRIRRRPPRLPRPRPRPHYGPRP | -0.178 |
| RRIRVRPPRLPRPRPRPYHWPRP | -0.633 |
| RRIRIRPPRLPRPRPRPTRAPRP | 0.561 |
| RRIRQRPPRLPRPRPRPSCYPRP | -0.396 |
| RRIRGRPPRLPRPRPRPCQGPRP | 0.242 |
| RRIRGRPPRLPRPRPRPAACPRP | 1.15 |
| RRIRPRPPRLPRPRPRPTNPPRP | 0.174 |
| RRIRGRPPRLPRPRPRPPQVPRP | 0.791 |
| RRIRLRPPRLPRPRPRPIWLPRP | 0.132 |
| RRIRFRPPRLPRPRPRPGCAPRP | 1.03 |
| RRIRVRPPRLPRPRPRPDHMPRP | -0.384 |
| RRIRQRPPRLPRPRPRPRHVPRP | -0.14 |
| RRIRERPPRLPRPRPRPSEHPRP | -0.0752 |
| RRIRYRPPRLPRPRPRPHTVPRP | -1.21 |
| RRIRERPPRLPRPRPRPVPVPRP | 0.0913 |
| RRIRQRPPRLPRPRPRPKVQPRP | 0.0205 |
| RRIRDRPPRLPRPRPRPGWTPRP | 0.379 |
| RRIRLRPPRLPRPRPRPSACPRP | -0.484 |
| RRIRCRPPRLPRPRPRPNQLPRP | -0.345 |
| RRIRIRPPRLPRPRPRPMRMPRP | 0.0697 |
| RRIRHRPPRLPRPRPRPVDDPRP | -0.221 |
| RRIRRRPPRLPRPRPRPDTRPRP | -0.0459 |
| RRIRKRPPRLPRPRPRPNFMPRP | -0.117 |
